According to US20210230272A1:
Changes are numbered by the printed parent chain. Like-named read-outs stand apart in the source and are kept apart here. Each block holds one binder with its values, some of them ahead of it.

How the values were obtained:
[1] = target: human CLDN18.2 (human), P56856; test: cell-based or functional assay
human CLDN18.2 (human) [2] = target: human CLDN18.2 (human) (UniProt P56856); test: cell ELISA, hCLDN18.2+ cells
mice CLDN18.2 (mice) = mice CLDN18.2 (mice) (UniProt P56857); test: cell ELISA, mCLDN18.2+ cells
human CLDN18.2 (human) [3] = target: human CLDN18.2 (human) (UniProt P56856); test: cell-based or functional assay
human CLDN18.2 (human) [4] = target: human CLDN18.2 (human) (UniProt P56856); test: cell ELISA, hCLDN18.2+ cells; remark: listed apart in the source
human CLDN18.2 (human) [5] = target: human CLDN18.2 (human) (UniProt P56856); test: flow cytometry, CF633, 1 µg/ml
human CLDN18.2 (human) [6] = target: human CLDN18.2 (human) (UniProt P56856); test: flow cytometry, CF488, 10 µg/ml
human CLDN18.2 (human) [7] = target: human CLDN18.2 (human) (UniProt P56856); test: flow cytometry, CF633, 10 µg/ml
human CLDN18.2 (human) [8] = target: human CLDN18.2 (human) (UniProt P56856); test: KinExA, antibody titrated with hCLDN18.2+ cells
human CLDN18.2 (human) [9] = target: human CLDN18.2 (human) (UniProt P56856); test: flow cytometry, CF488 labeled antibody 1 µg/ml, hCLDN18.2+ cells
human CLDN18.2 (human) [10] = target: human CLDN18.2 (human) (UniProt P56856); test: flow cytometry, CF633 labeled antibody 1 µg/ml, hCLDN18.2+ cells
human CLDN18.2 (human) [11] = target: human CLDN18.2 (human) (UniProt P56856); test: flow cytometry, CF488 labeled antibody 10 µg/ml, hCLDN18.2+ cells
human CLDN18.2 (human) [12] = target: human CLDN18.2 (human) (UniProt P56856); test: flow cytometry, CF633 labeled antibody 10 µg/ml, hCLDN18.2+ cells

CDC activity, EC50 [1]: 2.12 µg/mL
B2: Ab51 (antibody, IgG1, V domains shown)
VL: DIVMTQSPDSLAVSLGERATINCKSSQSLLNTGNNKNYLAWYQQKPGQPPKLLIYWASTRESGVPDRFSGSGSGTDFTLTISSLQAEDVAVYYCQNDYFYPFTFGQGTKLEIK
VH: QVQLVQSGAEVKKPGSSVKVSCKASGYAFSNYLIEWVRQAPGQGLEWMGLINPGSGGTNYNEKFKGRVTITADESTSTAYMELSSLRSEDTAVYYCARVYYGNTFAYWGQGTLVTVSS

EC50 (human CLDN18.2 (human) [2]): 151 pM
Emax (human CLDN18.2 (human) [2]): 1.42
B4: Ab34 (antibody, V domains shown)
VH: B2 VH with R67K, E74K
VL: B2 VL with N22S, T32S

EC50 (human CLDN18.2 (human) [2]): 197 pM
Emax (human CLDN18.2 (human) [2]): 1.41
B8: Ab32 (antibody, V domains shown)
VH: B2 VH with R67K, E74K
VL: B2 VL with T32S

EC50 (mice CLDN18.2 (mice)): 474 pM
Emax (mice CLDN18.2 (mice)): 1.91
B10: Ab51 (antibody, IgG1, V domains shown)
VH: B2 VH
VL: B2 VL

ADCC activity, EC50 (human CLDN18.2 (human) [3]): 1.39 µg/mL
CDC activity, EC50 (human CLDN18.2 (human) [3]): 2.31 µg/mL
inducing the apoptosis of tumor cells at 10 µg/ml (LDH release) (human CLDN18.2 (human) [3]): 15.3%
inducing the apoptosis of tumor cells at 30 µg/ml (LDH release) (human CLDN18.2 (human) [3]): 19.6%
inhibition rate % of proliferation, 1 µg/ml (CCK-8) (human CLDN18.2 (human) [3]): 2.34%
inhibition rate % of proliferation, 10 µg/ml (CCK-8) (human CLDN18.2 (human) [3]): 2.94%
inhibition rate % of proliferation, 30 µg/ml (CCK-8) (human CLDN18.2 (human) [3]): 3.9%
EC50 (human CLDN18.2 (human) [4]): 345 pM
Emax (human CLDN18.2 (human) [4]): 0.98
EC50 (human CLDN18.2 (human) [2]): 249 pM
Emax (human CLDN18.2 (human) [2]): 1.41
EC50 (mice CLDN18.2 (mice)): 1040 pM
Emax (mice CLDN18.2 (mice)): 1
binding value, ratio to the background (human CLDN18.2 (human) [5]): 2.7
binding value, times higher than the background (human CLDN18.2 (human) [6]): 4 times
binding value, times of the background (human CLDN18.2 (human) [7]): 8.5 times
Kd (human CLDN18.2 (human) [8]): 144 pM
Binding value (FACS fluorescence intensity) (human CLDN18.2 (human) [9]): 1940
Binding value (FACS fluorescence intensity) (human CLDN18.2 (human) [10]): 62.5
Binding value (FACS fluorescence intensity) (human CLDN18.2 (human) [11]): 17900
Binding value (FACS fluorescence intensity) (human CLDN18.2 (human) [12]): 198
B11: Ref (control anti-human CLDN18.2 antibody) (antibody, INN chains, looked up, V domains shown)
VH: QVQLQQPGAELVRPGASVKLSCKASGYTFTSYWINWVKQRPGQGLEWIGNIYPSDSYTNYNQKFKDKATLTVDKSSSTAYMQLSSPTSEDSAVYYCTRSWRGNSFDYWGQGTTLTVSS
VL: DIVMTQSPSSLTVTAGEKVTMSCKSSQSLLNSGNQKNYLTWYQQKPGQPPKLLIYWASTRESGVPDRFTGSGSGTDFTLTISSVQAEDLAVYYCQNDYSYPFTFGSGTKLEIKR

Further lines, the binder ahead of its results:

B1: CAR1a (CAR with Ab10 scFv) (protein)
chain: DIVMTQSPDSLAVSLGERATISCKSSQSLLNSGNQKNYLTWYQQKPGQPPKLLIYWASTRESGVPDRFSGSGSGTDFTLTISSLQAEDVAVYYCQNDYFYPFTFGQGTKLEIKGGGGSGGGGSGGGGSQVQLVQSGAEVKKPGSSVKVSCKASGYAFSNYLIEWVKQAPGQGLEWIGLINPGSGGTNYNEKFKGKATITADKSTSTAYMELSSLRSEDTAVYYCARVYYGNSFAYWGQGTLVTVSSTTTPAPRPPTPAPTIASQPLSLRPEACRPAAGGAVHTRGLDFACDIYIWAPLAGTCGVLLLSLVITLYCKRGRKKLLYIFKQPFMRPVQTTQEEDGCSCRFPEEEEGGCELRVKFSRSADAPAYKQGQNQLYNELNLGRREEYDVLDKRRGRDPEMGGKPRRKNPQEGLYNELQKDKMAEAYSEIGMKGERRRGKGHDGLYQGLSTATKDTYDALHMQALPPR
specific killing rate of target cells, %, CART1a, 1:1 [1]: 19.1%
specific killing rate of target cells, %, CART1a, 3:1 [1]: 18.3%
specific killing rate of target cells, %, CART1a, 10:1 [1]: 32.2%
specific killing rate of target cells, %, CART1a, 20:1 [1]: 34.8%
specific killing rate of target cells, %, CART3a, 1:1 [1]: 3.9%
specific killing rate of target cells, %, CART3a, 3:1 [1]: 3.1%
specific killing rate of target cells, %, CART3a, 10:1 [1]: 21.8%
specific killing rate of target cells, %, CART3a, 20:1 [1]: 24.3%
specific killing rate of target cells, %, CART3ab10, 1:1 [1]: 0%
specific killing rate of target cells, %, CART3ab10, 3:1 [1]: 0%
specific killing rate of target cells, %, CART3ab10, 10:1 [1]: 12.2%
specific killing rate of target cells, %, CART3ab10, 20:1 [1]: 21.2%
specific killing rate of target cells, %, CART4a, 1:1 [1]: 0%
specific killing rate of target cells, %, CART4a, 3:1 [1]: 1.2%
specific killing rate of target cells, %, CART4a, 10:1 [1]: 8.8%
specific killing rate of target cells, %, CART4a, 20:1 [1]: 19.8%

B3: Ab28 (antibody, V domains shown)
VH: B2 VH with R67K, E74K, T104S
VL: B2 VL
EC50 (human CLDN18.2 (human) [2]): 154 pM
Emax (human CLDN18.2 (human) [2]): 1.56

B5: Ab30 (antibody, V domains shown)
VH: B2 VH with R67K, E74K
VL: B2 VL with N22S, T32S, N35Q, A40T
EC50 (human CLDN18.2 (human) [2]): 11400 pM
Emax (human CLDN18.2 (human) [2]): 0.67

B6: Ab21 (antibody, V domains shown)
VH: B2 VH with R67K, E74K, N103T, T104S
VL: B2 VL with N31T, T32S
EC50 (human CLDN18.2 (human) [2]): > 16000 pM
Emax (human CLDN18.2 (human) [2]): 0.145

B7: Ab22 (antibody, V domains shown)
VH: B2 VH with R67K, E74K
VL: B2 VL with N31T, T32S
EC50 (human CLDN18.2 (human) [2]): 1370 pM
Emax (human CLDN18.2 (human) [2]): 0.827

B9: Ab23 (antibody, V domains shown)
VH: B2 VH with R67K, E74K, N103T, T104S
VL: B2 VL
EC50 (human CLDN18.2 (human) [2]): > 40000 pM
Emax (human CLDN18.2 (human) [2]): 0.147
